Reference: US20070105771A1 (Y S THERAPEUTICS, published 2007)
Like-named read-outs stand apart in the source and are kept apart here.

Columns and labels:
[1] = biological target: T1, Purified recombinant human CD26 (rhDipeptidyl peptidase IV), R&D Systems CAT #1180-SE (human, UniProt P27487 29-766); assay: SPR (Biacore), Fab
T1 construct: Bought recombinant protein; also called hu-CD26; soluble human CD26
Experimental: (§1) Fabs produced in E. coli as described below were diluted in PBS in a concentration of ˜0.5 μM for the assay. A typical recording included a 3 minute period of injection of the Fab followed by a period of 15 minutes of dissociation, and analysis was performed based on the raw data of the binding curves accordingly.
The CD26 binding partner was as shown below.

[2] = biological target: T1, Purified recombinant human CD26 …; assay: SPR (Biacore), Fab; remark: listed apart in the source
[3] = biological target: T1, Purified recombinant human CD26 …; assay: SPR (Biacore), Fab; remark: listed apart in the source
[4] = biological target: T1, Purified recombinant human CD26 …; assay: SPR (Biacore), Fab; remark: listed apart in the source
Experimental: as §1

[5] = biological target: human CD26 on the cell surface (human, UniProt P27487 1-766); assay: cell-based or functional assay
[6] = biological target: T1, Purified recombinant human CD26 …; assay: SPR (Biacore), CD26 preoccupied by the Fab; competitor 14D10 ascites
Text: A specificity analysis of selected Fabs comprising pairs of variant VH and VL sequences was done. […] The analysis was done using Biacore® as described in Example 1.

Sequence of human CD26 on the cell surface (P27487 whole entry): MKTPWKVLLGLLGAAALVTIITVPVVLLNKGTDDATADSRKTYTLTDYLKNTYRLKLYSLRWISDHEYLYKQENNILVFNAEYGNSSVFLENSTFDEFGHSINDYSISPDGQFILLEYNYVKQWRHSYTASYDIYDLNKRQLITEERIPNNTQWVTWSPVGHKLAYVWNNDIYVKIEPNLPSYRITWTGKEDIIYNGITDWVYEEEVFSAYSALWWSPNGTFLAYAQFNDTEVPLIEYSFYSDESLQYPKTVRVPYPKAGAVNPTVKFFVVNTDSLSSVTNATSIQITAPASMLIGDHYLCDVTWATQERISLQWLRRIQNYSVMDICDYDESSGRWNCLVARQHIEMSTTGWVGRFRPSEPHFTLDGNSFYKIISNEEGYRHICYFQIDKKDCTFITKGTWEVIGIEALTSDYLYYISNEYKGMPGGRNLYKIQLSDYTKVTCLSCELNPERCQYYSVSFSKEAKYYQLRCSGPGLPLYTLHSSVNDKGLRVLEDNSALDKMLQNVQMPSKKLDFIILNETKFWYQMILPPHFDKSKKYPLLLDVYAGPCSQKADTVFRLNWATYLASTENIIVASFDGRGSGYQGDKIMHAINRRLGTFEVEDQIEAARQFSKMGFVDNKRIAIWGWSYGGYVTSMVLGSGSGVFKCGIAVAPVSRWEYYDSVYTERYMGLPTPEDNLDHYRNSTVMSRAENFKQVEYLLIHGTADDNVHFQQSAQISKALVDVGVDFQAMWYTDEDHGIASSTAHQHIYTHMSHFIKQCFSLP
T1 sequence (P27487 29-766 limits assumed): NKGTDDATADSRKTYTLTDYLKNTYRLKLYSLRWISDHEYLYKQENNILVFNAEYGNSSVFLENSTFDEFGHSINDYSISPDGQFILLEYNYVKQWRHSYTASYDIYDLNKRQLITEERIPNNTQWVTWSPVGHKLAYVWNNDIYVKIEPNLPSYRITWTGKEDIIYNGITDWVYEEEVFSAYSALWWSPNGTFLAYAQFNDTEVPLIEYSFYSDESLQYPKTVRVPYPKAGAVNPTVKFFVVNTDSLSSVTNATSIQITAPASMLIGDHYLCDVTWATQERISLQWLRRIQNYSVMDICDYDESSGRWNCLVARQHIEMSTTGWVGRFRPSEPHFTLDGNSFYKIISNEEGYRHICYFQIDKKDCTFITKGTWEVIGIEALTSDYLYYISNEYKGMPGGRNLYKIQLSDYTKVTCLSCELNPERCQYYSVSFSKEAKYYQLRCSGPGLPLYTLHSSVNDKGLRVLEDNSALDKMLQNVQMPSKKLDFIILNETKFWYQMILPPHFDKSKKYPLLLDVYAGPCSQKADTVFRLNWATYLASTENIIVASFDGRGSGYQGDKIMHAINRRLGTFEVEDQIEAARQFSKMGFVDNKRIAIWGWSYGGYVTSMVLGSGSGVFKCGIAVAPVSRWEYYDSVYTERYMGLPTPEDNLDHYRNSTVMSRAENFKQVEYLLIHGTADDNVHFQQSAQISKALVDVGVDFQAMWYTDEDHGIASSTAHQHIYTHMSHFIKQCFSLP

Row | Binder | Kd [1] [nM] | koff [1] [s⁻¹] | kon [1] [M⁻¹ s⁻¹] | Kd [2] [nM] | other results
1 | Fab comprising X377 VL and CM03 VH (Fab, V domains shown, Fab made in E. coli; also called X377 Fab) VH: QVKLQESGPGLVQPSQTLSITCTVSGFSLTTYGVHWVRQSPGKGLEWLGVIWGGGRTDYDAAFISRLSISKDNSKSQVFFKMNSLQANDTAIYYCVRNRHDWFDYWGQGTTVTVSS VL: EIELTQSPSSLSVSLGDRVTISCSASQDIRNNLNWYQQKPGQAPRLLIYYSSNLQTGVPARFSGSGSGTDFTLTISRLEPEDVAAYYCQQSIKLPFTFGSGTKVEIK | 1.88 | 0.000596 | 317000 | 1.9 | –
2 | Fab comprising X379 VL and CM03 VH (Fab, V domains shown, Fab made in E. coli) VH: QVKLQESGPGLVQPSQTLSITCTVSGFSLTTYGVHWVRQSPGKGLEWLGVIWGGGRTDYDAAFISRLSISKDNSKSQVFFKMNSLQANDTAIYYCVRNRHDWFDYWGQGTTVTVSS VL: DILLTQSPSSLSATPGERATITCRASQGIRNNLNWYQQKPGQAPRLLIYYSSNLQSGVPSRFSGSGSGTDFTLTISRLQPEDVAAYYCQQSIKLPFTFGSGTKVEIK | 1.16 | 0.00067 | 578000 | 1.2 | –
3 | Fab comprising X378 VL and CM03 VH (Fab, V domains shown, Fab made in E. coli) VH: QVKLQESGPGLVQPSQTLSITCTVSGFSLTTYGVHWVRQSPGKGLEWLGVIWGGGRTDYDAAFISRLSISKDNSKSQVFFKMNSLQANDTAIYYCVRNRHDWFDYWGQGTTVTVSS VL: DIEMTQSPSSLSASAGERVTISCRASQGIRNSLNWYQQKPGQAPRLLIYYSSNLQTGVPSRFSGSGSGTDFTLTISRLQAEDFATYYCQQSNKLPFTFGSGTKVEIK | 2.92 | 0.00083 | 285000 | 2.9 | –
4 | Fab X394 (X384 VH and X394 VL) (Fab, V domains shown, Fab made in E. coli) VH: EVQLVESGAGVKQPGGTLRLTCTASGFSLTTYGVHWVRQAPGKGLEWVGVIWGDGRTDYDAAFMSRVTISKDTSKSTVYLQMNSLRAEDTAVYYCMRNRHDWFDYWGQGTTVTVSS VL: DILMTQSPSSLSASPGDRVTISCRASQDIRNNLNWYQQKPGQAPRLLIYYSSNLQTGVPARFSGSGSGTDFTLTISRLEPEDFAAYYCQQSIKLPLTFGSGTKVEIK | – | – | – | 0.58 | ratio of the Kd of CM03 Fab to the Kd of individual clone [2]: 2.81; Kd [3]: 0.58 nM
5 | Fab comprising X381 VL and CM03 VH (Fab, V domains shown, Fab made in E. coli) VH: QVKLQESGPGLVQPSQTLSITCTVSGFSLTTYGVHWVRQSPGKGLEWLGVIWGGGRTDYDAAFISRLSISKDNSKSQVFFKMNSLQANDTAIYYCVRNRHDWFDYWGQGTTVTVSS VL: EIELTQSPSSLSVSPGDRVTISCSASQGIRNSLNWYQQKPGQAPRLLIYYSSNLHTGVPARFSGSGSGTDFTLTISRLQAEDFATYYCQQSIKLPLTFGSGTKVEIK | 2.1 | 0.000601 | 293000 | 2.1 | –
6 | Fab comprising X380 VL and CM03 VH (Fab, V domains shown, Fab made in E. coli) VH: QVKLQESGPGLVQPSQTLSITCTVSGFSLTTYGVHWVRQSPGKGLEWLGVIWGGGRTDYDAAFISRLSISKDNSKSQVFFKMNSLQANDTAIYYCVRNRHDWFDYWGQGTTVTVSS VL: EIEMTQSPSSLSVSAGERATISCSASQDIRNSLNWYQQKPGQAPRLLIYYSSNLHTGVPARFSGSGSGTDFTLTISRLEPEDVAIYYCQQSNKLPLTFGSGTKVEIK | 2.33 | 0.000687 | 294000 | 2.3 | –
7 | Fab comprising X376 VL and CM03 VH (Fab, V domains shown, Fab made in E. coli) VH: QVKLQESGPGLVQPSQTLSITCTVSGFSLTTYGVHWVRQSPGKGLEWLGVIWGGGRTDYDAAFISRLSISKDNSKSQVFFKMNSLQANDTAIYYCVRNRHDWFDYWGQGTTVTVSS VL: DILMTQSPSSLSASPGDRVTISCRASQDIRNNLNWYQQKPGQAPRLLIYYSSNLHSGVPDRFSGSGSGTDFTLTISRLEPEDFAAYYCQQSIKLPLTFGSGTKVEIK | 2.31 | 0.000596 | 258000 | 2.3 | –
8 | Fab comprising X387 VH and CM03 VL (Fab, V domains shown, Fab made in E. coli) VH: EVQLVESGAELVQPGGSLRLTCKASGFTLNTYGVHWVRQAPGKGLEWMGVIWGGGRTDYDASFMSRVTISKDNSKNTAYLQLNSLRAEDTAVYYCTRSRHDWFDYWGQGTTVTVSS VL: DIQMTQSPSSLSASLGDRVTITCSASQGIRNSLNWYQQKPDGAVKLLIYYSSNLHSGVPSRFSGSGSGTDFSLTISNLEPEDIATYYCQQSIKLPFTFGSGTKLEIK | – | – | – | 51 | Kd [4]: 51.1 nM; koff [4]: 0.01 s⁻¹; kon [4]: 196000 M⁻¹ s⁻¹
9 | rhuMAb 410 (antibody, human IgG1, V domains shown) VH: EVQLVQSGGGLKQPGETLRLSCTASGYSLTTYGVHWVRQAPGKGLEWMGVIWGDGRTDYDSSFMSRVTISKDTSKSTAYLQLNSLRAEDTAVYYCTRNRHDWFDYWGQGTTVTVSS VL: DILMTQSPSSLSASPGDRVTISCRASQDIRNNLNWYQQKPGQAPRLLIYYSSNLHSGVPDRFSGSGSGTDFTLTISRLEPEDFAAYYCQQSIKLPLTFGSGTKVEIKR | – | – | – | – | percent inhibition, MTT assay, Jurkat CD26+ cells, 0.05 ug/ml [5]: 4%; percent inhibition, MTT assay, Jurkat CD26+ cells, 0.25 ug/ml [5]: 10.7%; percent inhibition, MTT assay, Jurkat CD26+ cells, 0.5 ug/ml [5]: 14%; percent inhibition, MTT assay, Jurkat CD26+ cells, 2.5 ug/ml [5]: 27.5%; percent inhibition, MTT assay, Jurkat CD26+ cells, 5 ug/ml [5]: 33.5%
10 | Fab X396 (X385 VH and X380 VL) (Fab, V domains shown, Fab made in E. coli) VH: EVQLVQSGGGVKQPGETLRLTCTASGFSLTTYGVHWVRQAPGKGLEWVGVIWGDGRTDYDAAFMSRVTISKDTSKSTAYLQMNSLRAEDTAVYYCMRNRHDWFDYWGQGTTVTVSS VL: EIEMTQSPSSLSVSAGERATISCSASQDIRNSLNWYQQKPGQAPRLLIYYSSNLHTGVPARFSGSGSGTDFTLTISRLEPEDVAIYYCQQSNKLPLTFGSGTKVEIK | – | – | – | 2.53 | Kd [3]: 2.53 nM; percent decrease in binding of 14D10 to CD26 [6]: ≥ 80%
11 | Fab comprising X385 VH and CM03 VL (Fab, V domains shown, Fab made in E. coli) VH: EVQLVQSGGGVKQPGETLRLTCTASGFSLTTYGVHWVRQAPGKGLEWVGVIWGDGRTDYDAAFMSRVTISKDTSKSTAYLQMNSLRAEDTAVYYCMRNRHDWFDYWGQGTTVTVSS VL: DIQMTQSPSSLSASLGDRVTITCSASQGIRNSLNWYQQKPDGAVKLLIYYSSNLHSGVPSRFSGSGSGTDFSLTISNLEPEDIATYYCQQSIKLPFTFGSGTKLEIK | – | – | – | 1.5 | Kd [4]: 1.47 nM; koff [4]: 0.000375 s⁻¹; kon [4]: 256000 M⁻¹ s⁻¹
12 | Fab X430 (X399 VH and X394 VL) (Fab, V domains shown, also called Fab X429) VH: EVQLVQSGGGVKQPGETLRLTCTASGFSLSTYGVHWVRQAPGKGLEWVGVIWGDGRTDYDAAFMSRVTISKDTSKSTVYLQMNSLRAEDTAVYYCMRNRHDWFDYWGQGTTVTVSS VL: DILMTQSPSSLSASPGDRVTISCRASQDIRNNLNWYQQKPGQAPRLLIYYSSNLQTGVPARFSGSGSGTDFTLTISRLEPEDFAAYYCQQSIKLPLTFGSGTKVEIK | – | – | – | 1.19 | ratio of the Kd of CM03 Fab to the Kd of individual clone [2]: 1.37; Kd [3]: 1.19 nM
13 | Fab comprising X386 VH and CM03 VL (Fab, V domains shown, Fab made in E. coli) VH: EVQLVESGAGVEQPGGTLRLTCTASGFSLTTYGVHWVRQAPGKGLEWMGVIWGDGRTDYDAAFMSRVTISRDTSKSTAYLQLNSLRAEDTAVYYCVRNRHDWFDYWGQGTTVTVSS VL: DIQMTQSPSSLSASLGDRVTITCSASQGIRNSLNWYQQKPDGAVKLLIYYSSNLHSGVPSRFSGSGSGTDFSLTISNLEPEDIATYYCQQSIKLPFTFGSGTKLEIK | – | – | – | 2.7 | Kd [4]: 2.71 nM; koff [4]: 0.000498 s⁻¹; kon [4]: 184000 M⁻¹ s⁻¹
14 | Fab comprising X384 VH and CM03 VL (Fab, V domains shown, Fab made in E. coli) VH: EVQLVESGAGVKQPGGTLRLTCTASGFSLTTYGVHWVRQAPGKGLEWVGVIWGDGRTDYDAAFMSRVTISKDTSKSTVYLQMNSLRAEDTAVYYCMRNRHDWFDYWGQGTTVTVSS VL: DIQMTQSPSSLSASLGDRVTITCSASQGIRNSLNWYQQKPDGAVKLLIYYSSNLHSGVPSRFSGSGSGTDFSLTISNLEPEDIATYYCQQSIKLPFTFGSGTKLEIK | – | – | – | 1.2 | Kd [4]: 1.19 nM; koff [4]: 0.000312 s⁻¹; kon [4]: 262000 M⁻¹ s⁻¹
15 | Fab X399 (X399 VH and X380 VL) (Fab, V domains shown, Fab made in E. coli) VH: EVQLVQSGGGVKQPGETLRLTCTASGFSLSTYGVHWVRQAPGKGLEWVGVIWGDGRTDYDAAFMSRVTISKDTSKSTVYLQMNSLRAEDTAVYYCMRNRHDWFDYWGQGTTVTVSS VL: EIEMTQSPSSLSVSAGERATISCSASQDIRNSLNWYQQKPGQAPRLLIYYSSNLHTGVPARFSGSGSGTDFTLTISRLEPEDVAIYYCQQSNKLPLTFGSGTKVEIK | – | – | – | 2.85 | Kd [3]: 2.85 nM
16 | Fab comprising X388 VH and CM03 VL (Fab, V domains shown, Fab made in E. coli) VH: EVQLVQSGGGLKQPGETLRLSCTASGYSLTTYGVHWVRQAPGKGLEWMGVIWGDGRTDYDSSFMSRVTISKDTSKSTAYLQLNSLRAEDTAVYYCTRNRHDWFDYWGQGTTVTVSS VL: DIQMTQSPSSLSASLGDRVTITCSASQGIRNSLNWYQQKPDGAVKLLIYYSSNLHSGVPSRFSGSGSGTDFSLTISNLEPEDIATYYCQQSIKLPFTFGSGTKLEIK | – | – | – | 3 | Kd [4]: 2.98 nM; koff [4]: 0.000698 s⁻¹; kon [4]: 235000 M⁻¹ s⁻¹
17 | Fab X431 (X420 VH and X380 VL) (Fab, V domains shown, also called Fab X420) VH: EVQLVESGGGVKQPGETLRLTCTASGFSLSTYGVHWVRQAPGKGLEWVGVIWGDGRTDYDAAFMSRVTISKDTSKSTVYLQMNSLRAEDTAVYYCMRNRHDWFDYWGQGTTVTVSS VL: EIEMTQSPSSLSVSAGERATISCSASQDIRNSLNWYQQKPGQAPRLLIYYSSNLHTGVPARFSGSGSGTDFTLTISRLEPEDVAIYYCQQSNKLPLTFGSGTKVEIK | – | – | – | 0.92 | Kd [3]: 0.92 nM
